From patent US20190119389A1 (POTENZA THERAPEUTICS, published 2019)

T1: Cyno NRP-1 His (cynomolgus monkey, UniProt O14786 22-856 (human entry), limits assumed)
T1 construct: Recombinant monomeric protein; also called cynomolgus monkey NRP-1-His; cNRP-1; not shown: His tag
T1 chain: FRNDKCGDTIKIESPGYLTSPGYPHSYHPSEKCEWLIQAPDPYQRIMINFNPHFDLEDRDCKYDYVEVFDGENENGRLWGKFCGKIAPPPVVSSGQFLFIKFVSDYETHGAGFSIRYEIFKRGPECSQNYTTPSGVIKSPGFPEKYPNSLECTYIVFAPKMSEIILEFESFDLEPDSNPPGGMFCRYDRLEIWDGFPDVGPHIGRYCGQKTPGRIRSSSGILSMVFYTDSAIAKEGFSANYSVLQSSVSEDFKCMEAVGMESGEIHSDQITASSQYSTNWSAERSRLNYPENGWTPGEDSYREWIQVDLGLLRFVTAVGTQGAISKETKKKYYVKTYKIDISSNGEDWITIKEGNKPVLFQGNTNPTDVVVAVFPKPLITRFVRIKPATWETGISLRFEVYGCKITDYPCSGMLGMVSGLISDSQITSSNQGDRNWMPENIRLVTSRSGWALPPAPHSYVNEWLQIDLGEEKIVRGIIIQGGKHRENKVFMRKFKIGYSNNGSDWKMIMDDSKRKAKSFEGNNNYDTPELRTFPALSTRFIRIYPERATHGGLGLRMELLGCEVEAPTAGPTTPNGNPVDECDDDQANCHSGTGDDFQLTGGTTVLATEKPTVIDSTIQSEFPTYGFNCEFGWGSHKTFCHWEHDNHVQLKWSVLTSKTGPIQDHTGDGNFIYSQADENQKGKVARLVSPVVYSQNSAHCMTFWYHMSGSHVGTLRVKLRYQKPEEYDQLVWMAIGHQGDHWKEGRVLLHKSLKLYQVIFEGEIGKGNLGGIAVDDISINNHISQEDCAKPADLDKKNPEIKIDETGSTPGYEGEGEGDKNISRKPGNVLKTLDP


Legend:
[1] = target: T2, Human NRP-1 His (human, UniProt O14786 22-856); assay: BLI ForteBio, IgG1 N297A on AHQ sensor, 100 nM monomeric antigen, 1:1 fit
T2 construct: Recombinant monomeric protein; Biotinylated in the MSD-SET assay; also called hNRP-1; not shown: His tag

[2] = target: T1, Cyno NRP-1 His; assay: as above
[3] = target: T3, Mouse NRP-1 His (mouse, UniProt P97333 22-856); assay: as above
T3 construct: Recombinant monomeric protein; also called mNRP-1; not shown: His tag

[4] = target: T4, recombinant human NRP-1 (human, UniProt O14786 22-856, limits assumed); assay: blocking ELISA: SEMA3A coated, biotinylated human NRP-1 preincubated with IgG1 antibody; competitor SEMA3A
T4 construct: also called biotinylated human NRP-1

[5] = target: T2, Human NRP-1 His; assay: MSD-SET solution equilibrium titration, Fab
Target sequence in this assay (O14786 22-856 V179A limits assumed): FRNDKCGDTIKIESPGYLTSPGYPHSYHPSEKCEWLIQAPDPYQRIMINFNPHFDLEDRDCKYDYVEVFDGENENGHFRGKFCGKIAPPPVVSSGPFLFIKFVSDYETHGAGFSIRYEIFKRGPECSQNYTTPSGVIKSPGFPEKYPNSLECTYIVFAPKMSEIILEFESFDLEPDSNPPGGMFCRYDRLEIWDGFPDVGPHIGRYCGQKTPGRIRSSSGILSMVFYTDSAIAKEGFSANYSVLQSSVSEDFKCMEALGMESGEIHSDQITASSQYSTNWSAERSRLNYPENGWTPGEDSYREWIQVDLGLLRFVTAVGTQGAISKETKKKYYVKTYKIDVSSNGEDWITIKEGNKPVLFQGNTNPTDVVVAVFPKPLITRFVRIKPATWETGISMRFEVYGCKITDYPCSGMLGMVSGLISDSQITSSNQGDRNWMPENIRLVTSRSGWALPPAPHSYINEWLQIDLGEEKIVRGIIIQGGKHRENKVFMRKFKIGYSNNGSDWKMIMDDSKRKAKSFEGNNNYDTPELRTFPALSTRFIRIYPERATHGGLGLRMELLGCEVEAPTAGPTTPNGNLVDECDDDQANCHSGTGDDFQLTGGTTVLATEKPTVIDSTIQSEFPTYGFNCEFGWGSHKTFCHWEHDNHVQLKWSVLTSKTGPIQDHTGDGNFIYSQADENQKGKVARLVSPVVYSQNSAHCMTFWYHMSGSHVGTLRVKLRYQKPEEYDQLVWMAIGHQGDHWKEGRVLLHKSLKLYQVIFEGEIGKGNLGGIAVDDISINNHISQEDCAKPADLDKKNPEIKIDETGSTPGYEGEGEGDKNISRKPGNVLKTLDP

T4 sequence (O14786 22-856 V179A limits assumed): as above

| Binder | Kd [1] | Kd [2] | Kd [3] | IC50 [4] | Kd [5] |
| --- | --- | --- | --- | --- | --- |
| MAB1 (antibody, V domains shown) VH: QVQLVQSGAGVKKPGASVKVSCKASGYTFRSYYMLWVRQAPGQGLEWMGIIDPSDGSTSYAQKFQGRVTMTRDTPTSTVYMELSSLRSEDTAVYYCARGARRITGYGMDVWGQGTTVTVSS VL: DIQMTQSPSSVSASVGDRVTITCRASQGISSWLAWYQQKPGKAPKLLIYAASNLQSGVPSRFSGSGSGTDFTLTISSLQPEDFATYYCQQASVFPFTFGGGTKVEIK | 1.87 nM | 2.16 nM | 2.12 nM | 2.9 nM | – |
| MAB13 (antibody, V domains shown) VH: QVQLQQWGAGLLKPSETLSLTCAVYGGSFRGYYWEWIRQPPGKGLEWIGEISHSGSTNYNPSLKSRVTISVDTSKNQFSLKLSSVTAADTAVYYCARARPYREPYGMDVWGQGTTVTVSS VL: DIQLTQSPSSVSASVGDRVTITCRASQDISSWLAWYQQKPGKAPKLLIYAASSLQSGVPSRFSGSGSGTDFTLTISSLQPEDFATYYCQQELAFPRTFGGGTKVEIK | 1.41 nM | 1.58 nM | 7.42 nM | 3.4 nM | – |
| MAB3 (antibody, V domains shown) VH: QAQLVQSGAEVKKPGASVKVSCKASGYTFSRYYMHWVRQAPGQGLEWMGIINPLGGSTLYAQKFQGRVTMTRDTSTSTVYMELSSLRSEDTAVYYCARDLGYYGSGMHAWGQGTLVTVSS VL: DIQMTQSPSSVSASVGDRVTITCRASQGISRWLAWYQQKPGKAPKLLIYAASSLQSGVPSRFSGSGSGTDFTLTISSLQPEDFATYYCQQANLLPFTFGGGTKVEIK | 1.08 nM | 1.19 nM | 0.99 nM | 0.6 nM | – |
| MAB3 Fab (Fab, V domains shown) VH: QAQLVQSGAEVKKPGASVKVSCKASGYTFSRYYMHWVRQAPGQGLEWMGIINPLGGSTLYAQKFQGRVTMTRDTSTSTVYMELSSLRSEDTAVYYCARDLGYYGSGMHAWGQGTLVTVSS VL: DIQMTQSPSSVSASVGDRVTITCRASQGISRWLAWYQQKPGKAPKLLIYAASSLQSGVPSRFSGSGSGTDFTLTISSLQPEDFATYYCQQANLLPFTFGGGTKVEIK | – | – | – | – | 0.06 nM |
| MAB2 (antibody, V domains shown) VH: QVQLVQSGAEVKKPGASVKVSCKASGYTFRSYYMLWVRQAPGQGLEWMGIIDPSDGSTSYAQKFQGRVTMTRDASTSTVYMELSSLRSEDTAVYYCARGARRITGYGMDVWGQGTTVIVSS VL: DIQMTQSPSSVSASVGDRVTITCRASQGISSWLAWYQQKPGKAPKLLIYAASNLQSGVPSRFSGSGSGTDFTLTISSLQPEDFATYYCQQASVFPFTFGGGTKVEIK | 1.86 nM | 2.43 nM | 1.94 nM | 3.1 nM | – |
| MAB2 Fab (Fab, V domains shown) VH: QVQLVQSGAEVKKPGASVKVSCKASGYTFRSYYMLWVRQAPGQGLEWMGIIDPSDGSTSYAQKFQGRVTMTRDASTSTVYMELSSLRSEDTAVYYCARGARRITGYGMDVWGQGTTVIVSS VL: DIQMTQSPSSVSASVGDRVTITCRASQGISSWLAWYQQKPGKAPKLLIYAASNLQSGVPSRFSGSGSGTDFTLTISSLQPEDFATYYCQQASVFPFTFGGGTKVEIK | – | – | – | – | 0.23 nM |
| MAB4 (antibody, V domains shown) VH: QVQLVQSGAEVKKPGASVKVSCKASGYTFSRYYMHWVRQAPGQGLEWMGIINPLGGSTLYAQKFQGRVTMTRDTSTSTVYMELSSLRSEDTAVYYCARDLGYYGSGMHVWGQGTLVTVSS VL: DIQMTQSPSSVSASVGDRVTITCRASQGISRWLAWYQQKPGKAPKLLIYAASSLQSGVPSRFSGSGSGTDFTLTISSLQPEDFATYYCQQANLLPFTFGGGTKVEIK | 0.851 nM | 0.925 nM | 0.746 nM | 3.9 nM | – |

More lines, now with the values ahead:

| Kd [1] | Kd [2] | Kd [3] | IC50 [4] | Kd [5] | Binder |
| --- | --- | --- | --- | --- | --- |
| 3.23 nM | 4.09 nM | 5.06 nM | 5.9 nM | – | MAB5 (antibody, V domains shown) VH: QVQLVQSGAEVKKPGASVKVSCKASGYTFTSYYMHWVRQAPGQGLEWMGIINPQGGDTSYAQKFQGRVTMTRDTSTSTVYMELSSLRSEDTAVYYCARDRGMYYASGFGPWGQGTLVTVSS VL: EIVMTQSPGTLSLSPGERATLSCRASQSVSSSYLAWYQQKPGQAPRLLIYGASNRATGIPDRFSGSGSGTDFTLTISRLEPEDFAVYYCQQLSSFPITFGGGTKVEIK |
| – | – | – | – | 0.096 nM | MAB8 Fab (Fab, V domains shown) VH: EVQLLESGGGLVQPGGSLRLSCAASGFTFASYAMVWVRQAPGKGLEWVSIISGSGGSTYYADSVKGRFTISRDNSKNTLYLQMNSLRAEDTAVYYCAKDPGYDSSRYYYSNYGMDVWGQGTTVTVSS VL: DIQMTQSPSSLSASVGDRVTITCRASQSISSYLNWYQQKPGKAPKLLIYGASSLQSGVPSRFSGSGSGTDFTLTISSLQPEDFATYYCQQTYSLYTFGGGTKVEIK |
| – | – | – | – | 0.021 nM | MAB11 Fab (Fab, V domains shown) VH: EVQLLESGGGLVQPGGSLRLSCAASGFTFSSVAMVWVRQAPGKGLEWVSAISGSGGATYYADSVEGRFTISRDNSKNTLYLQMSSLRAEDTAVYYCAKDPGYDSSRYYYSNYGMDVWGQGTTVTVSS VL: DIQMTQSPSSLSASVGDRVTITCRASQSISSYLNWYQQKPGKAPKLLIYGASSLQSGVPSRFSGSGSGTDFTLTISSLQPEDFATYYCQQTYSLYTFGGGTKVEIK |
| – | – | – | – | 0.026 nM | MAB12 Fab (Fab, V domains shown) VH: EVQLLESGGGLVQPGGSLRLSCAASGFTFSSVAMVWVRQAPGKGLEWVSAISGSGGATYYADSVEGRFTISRDNSKNTLYLQMNSLRAEDTAVYYCAKDPGYDSSRYYYSNYGMDVWGQGTTVTVSS VL: DIQMTQSPSSLSASVGDRVTITCRASQSISSYLNWYQQKPGKAPKLLIYGASSLQSGVPSRFSGSGSGTDFTLTISSLQPEDFATYYCQQTYSLYTFGGGTKVEIK |
| – | – | – | – | 0.019 nM | MAB9 Fab (Fab, V domains shown) VH: EVQLLESGGGLVQPGGSLRLSCAASGFTFKSYAMVWVRQAPGKGLEWVSIISGSGGATYYADSVKGRFTISRDNSKNTLYLQMNSLRAEDTAVYYCAKDPGYDSSRYYYSNYGMDVWGQGTTVTVSS VL: DIQMTQSPSSLSASVGDRVTITCRASQSISSYLNWYQQKPGKAPKLLIYGASSLQSGVPSRFSGSGSGTDFTLTISSLQPEDFATYYCQQTYSLYTFGGGTKVEIK |
| 0.851 nM | 9.2 nM | 54.1 nM | – | – | MAB15 (antibody, V domains shown) VH: QVQLQQWGAGLLKPSETLSLTCAVYGGSFVKYYWSWIRQPPGKGLEWIGDIWHSGMTNYNPSLKSRVTISVDTSKNQFSLKLSSVTAADTAVYYCARGPGYDSSGYSRRFDPWGQGTLVTVSS VL: not shown |
| – | – | – | – | 0.28 nM | MAB14 Fab (Fab, V domains shown) VH: QVQLQQWGAGLLKPSETLSLTCAVYGGSFRGYYWEWSRQPPGKGLEWIGEISHSGSTNYNPSLKSRVTISVDTSKNQFSLKLSPVTAADTAVYYCARARPYREPYGMDVWGQGTTVTVSS VL: DIQLTQSPSSVSASVGDRVTITCRASQDISSWLAWYQQKPGKAPKLLIYAASSLQSGVPSRFSGSGSGTDFTLTISSLQPEDFATYYCQQELAFPRTFGGGTKVEIK |
| – | – | – | – | 0.046 nM | MAB4 Fab (Fab, V domains shown) VH: QVQLVQSGAEVKKPGASVKVSCKASGYTFSRYYMHWVRQAPGQGLEWMGIINPLGGSTLYAQKFQGRVTMTRDTSTSTVYMELSSLRSEDTAVYYCARDLGYYGSGMHVWGQGTLVTVSS VL: DIQMTQSPSSVSASVGDRVTITCRASQGISRWLAWYQQKPGKAPKLLIYAASSLQSGVPSRFSGSGSGTDFTLTISSLQPEDFATYYCQQANLLPFTFGGGTKVEIK |
| 1.12 nM | 1.1 nM | 5 nM | 3.1 nM | – | MAB14 (antibody, V domains shown) VH: QVQLQQWGAGLLKPSETLSLTCAVYGGSFRGYYWEWSRQPPGKGLEWIGEISHSGSTNYNPSLKSRVTISVDTSKNQFSLKLSPVTAADTAVYYCARARPYREPYGMDVWGQGTTVTVSS VL: DIQLTQSPSSVSASVGDRVTITCRASQDISSWLAWYQQKPGKAPKLLIYAASSLQSGVPSRFSGSGSGTDFTLTISSLQPEDFATYYCQQELAFPRTFGGGTKVEIK |
